Results taken from patent US20130005646A1 (Novo Nordisk, published 2013).
Starred links: 1 amine or outer side, 2 acyl side, 3 side chain; linkers in the order of their positions; H or OH if unused. Positions of bridges follow the written chain, without caps; N, C: chain ends. *: point of attachment. C20 diacid = O=C(O)CCCCCCCCCCCCCCCCCCC(=O)*; γGlu = O=C(O)[C@H](CCC(=O)[*:2])N[*:1]

T1: human amylin 3(a) receptor (human calcitonin receptor + RAMP-3) (human, UniProt P30988 25-474; O60896 24-148)
T1 sequence (looked up) 1: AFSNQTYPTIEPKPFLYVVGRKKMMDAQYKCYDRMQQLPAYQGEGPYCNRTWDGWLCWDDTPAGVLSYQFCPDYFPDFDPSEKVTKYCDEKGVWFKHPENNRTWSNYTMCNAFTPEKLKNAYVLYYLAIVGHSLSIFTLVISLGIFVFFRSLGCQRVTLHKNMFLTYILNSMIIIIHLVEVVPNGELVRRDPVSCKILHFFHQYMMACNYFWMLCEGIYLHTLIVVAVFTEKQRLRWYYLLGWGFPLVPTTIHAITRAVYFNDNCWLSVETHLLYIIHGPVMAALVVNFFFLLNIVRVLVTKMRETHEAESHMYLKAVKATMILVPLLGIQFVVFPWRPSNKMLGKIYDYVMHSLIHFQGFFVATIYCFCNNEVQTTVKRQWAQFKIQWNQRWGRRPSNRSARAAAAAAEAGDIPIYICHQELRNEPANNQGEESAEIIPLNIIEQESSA
T1 sequence (looked up) 2: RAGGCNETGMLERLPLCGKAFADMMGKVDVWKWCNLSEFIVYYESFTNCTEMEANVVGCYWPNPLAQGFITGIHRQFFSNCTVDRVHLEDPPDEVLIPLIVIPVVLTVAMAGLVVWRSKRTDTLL

T2: human calcitonin (a) receptor (human, UniProt P30988 25-474)
T2 sequence (looked up): T1 sequence (looked up) 1

T3: rat calcitonin (a) receptor (rat, UniProt P32214 25-516)
T3 sequence (looked up): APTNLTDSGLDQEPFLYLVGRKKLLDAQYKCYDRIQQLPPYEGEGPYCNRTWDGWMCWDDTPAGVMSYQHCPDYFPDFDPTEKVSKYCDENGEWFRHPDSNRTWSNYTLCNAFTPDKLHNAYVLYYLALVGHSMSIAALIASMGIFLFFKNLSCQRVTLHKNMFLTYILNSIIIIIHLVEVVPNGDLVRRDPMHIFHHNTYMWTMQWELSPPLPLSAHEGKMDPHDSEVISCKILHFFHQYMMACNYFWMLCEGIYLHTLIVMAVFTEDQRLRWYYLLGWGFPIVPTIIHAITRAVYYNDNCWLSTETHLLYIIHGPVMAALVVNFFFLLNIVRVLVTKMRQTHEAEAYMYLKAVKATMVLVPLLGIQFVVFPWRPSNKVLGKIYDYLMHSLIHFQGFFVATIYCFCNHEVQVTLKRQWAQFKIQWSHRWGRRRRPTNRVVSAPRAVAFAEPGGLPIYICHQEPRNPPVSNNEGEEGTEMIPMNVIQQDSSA

T4: rat amylin 3(a) receptor (rat calcitonin(a) receptor + rat RAMP3) (rat, UniProt P32214 25-516; Q9JJ73 23-147)
T4 sequence (looked up) 1: T3 sequence (looked up)
T4 sequence (looked up) 2: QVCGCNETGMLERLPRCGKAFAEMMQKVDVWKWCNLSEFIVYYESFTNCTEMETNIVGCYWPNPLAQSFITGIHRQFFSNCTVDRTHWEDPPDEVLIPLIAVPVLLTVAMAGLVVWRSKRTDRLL

B1: N-alpha-[(S)-4-Carboxy-4-(19-carboxynonadecanoylamino)butyryl]-[His1,Glu14,His17,Arg18,Ser21,Ser22,Asp31,Asp35]-pramlintide (peptide)
peptide: {C20 diacid-γGlu}-HCNTATCATQRLAEFLHRSSSSFGPILPPTDVGSDTY-NH2
modifications: disulfide 2-7
SMILES: CC[C@H](C)[C@H](NC(=O)[C@@H]1CCCN1C(=O)CNC(=O)[C@H](Cc1ccccc1)NC(=O)[C@H](CO)NC(=O)[C@H](CO)NC(=O)[C@H](CO)NC(=O)[C@H](CO)NC(=O)[C@H](CCCNC(=N)N)NC(=O)[C@H](Cc1c[nH]cn1)NC(=O)[C@H](CC(C)C)NC(=O)[C@H](Cc1ccccc1)NC(=O)[C@H](CCC(=O)O)NC(=O)[C@H](C)NC(=O)[C@H](CC(C)C)NC(=O)[C@H](CCCNC(=N)N)NC(=O)[C@H](CCC(N)=O)NC(=O)[C@@H](NC(=O)[C@H](C)NC(=O)[C@@H]1CSSC[C@H](NC(=O)[C@H](Cc2c[nH]cn2)NC(=O)CC[C@H](NC(=O)CCCCCCCCCCCCCCCCCCC(=O)O)C(=O)O)C(=O)N[C@@H](CC(N)=O)C(=O)N[C@@H]([C@@H](C)O)C(=O)N[C@@H](C)C(=O)N[C@@H]([C@@H](C)O)C(=O)N1)[C@@H](C)O)C(=O)N[C@@H](CC(C)C)C(=O)N1CCC[C@H]1C(=O)N1CCC[C@H]1C(=O)N[C@H](C(=O)N[C@@H](CC(=O)O)C(=O)N[C@H](C(=O)NCC(=O)N[C@@H](CO)C(=O)N[C@@H](CC(=O)O)C(=O)N[C@H](C(=O)N[C@@H](Cc1ccc(O)cc1)C(N)=O)[C@@H](C)O)C(C)C)[C@@H](C)O
B2: N-alpha-[(S)-4-Carboxy-4-(19-carboxynonadecanoylamino)butyryl]-[Glu1,Glu14,His17,Arg18,Pro37]-pramlintide (peptide)
peptide: {C20 diacid-γGlu}-ECNTATCATQRLAEFLHRSSNNFGPILPPTNVGSNTP-NH2
modifications: disulfide 2-7
SMILES: CC[C@H](C)[C@H](NC(=O)[C@@H]1CCCN1C(=O)CNC(=O)[C@H](Cc1ccccc1)NC(=O)[C@H](CC(N)=O)NC(=O)[C@H](CC(N)=O)NC(=O)[C@H](CO)NC(=O)[C@H](CO)NC(=O)[C@H](CCCNC(=N)N)NC(=O)[C@H](Cc1c[nH]cn1)NC(=O)[C@H](CC(C)C)NC(=O)[C@H](Cc1ccccc1)NC(=O)[C@H](CCC(=O)O)NC(=O)[C@H](C)NC(=O)[C@H](CC(C)C)NC(=O)[C@H](CCCNC(=N)N)NC(=O)[C@H](CCC(N)=O)NC(=O)[C@@H](NC(=O)[C@H](C)NC(=O)[C@@H]1CSSC[C@H](NC(=O)[C@H](CCC(=O)O)NC(=O)CC[C@H](NC(=O)CCCCCCCCCCCCCCCCCCC(=O)O)C(=O)O)C(=O)N[C@@H](CC(N)=O)C(=O)N[C@@H]([C@@H](C)O)C(=O)N[C@@H](C)C(=O)N[C@@H]([C@@H](C)O)C(=O)N1)[C@@H](C)O)C(=O)N[C@@H](CC(C)C)C(=O)N1CCC[C@H]1C(=O)N1CCC[C@H]1C(=O)N[C@H](C(=O)N[C@@H](CC(N)=O)C(=O)N[C@H](C(=O)NCC(=O)N[C@@H](CO)C(=O)N[C@@H](CC(N)=O)C(=O)N[C@H](C(=O)N1CCC[C@H]1C(N)=O)[C@@H](C)O)C(C)C)[C@@H](C)O
B3: N-alpha-[(S)-4-Carboxy-4-(19-carboxynonadecanoylamino)butyryl]-His-His-[His1,Glu14,His17]-pramlintide (peptide)
peptide: {C20 diacid-γGlu}-HHHCNTATCATQRLAEFLHHSSNNFGPILPPTNVGSNTY-NH2
modifications: disulfide 4-9
SMILES: CC[C@H](C)[C@H](NC(=O)[C@@H]1CCCN1C(=O)CNC(=O)[C@H](Cc1ccccc1)NC(=O)[C@H](CC(N)=O)NC(=O)[C@H](CC(N)=O)NC(=O)[C@H](CO)NC(=O)[C@H](CO)NC(=O)[C@H](Cc1c[nH]cn1)NC(=O)[C@H](Cc1c[nH]cn1)NC(=O)[C@H](CC(C)C)NC(=O)[C@H](Cc1ccccc1)NC(=O)[C@H](CCC(=O)O)NC(=O)[C@H](C)NC(=O)[C@H](CC(C)C)NC(=O)[C@H](CCCNC(=N)N)NC(=O)[C@H](CCC(N)=O)NC(=O)[C@@H](NC(=O)[C@H](C)NC(=O)[C@@H]1CSSC[C@H](NC(=O)[C@H](Cc2c[nH]cn2)NC(=O)[C@H](Cc2c[nH]cn2)NC(=O)[C@H](Cc2c[nH]cn2)NC(=O)CC[C@H](NC(=O)CCCCCCCCCCCCCCCCCCC(=O)O)C(=O)O)C(=O)N[C@@H](CC(N)=O)C(=O)N[C@@H]([C@@H](C)O)C(=O)N[C@@H](C)C(=O)N[C@@H]([C@@H](C)O)C(=O)N1)[C@@H](C)O)C(=O)N[C@@H](CC(C)C)C(=O)N1CCC[C@H]1C(=O)N1CCC[C@H]1C(=O)N[C@H](C(=O)N[C@@H](CC(N)=O)C(=O)N[C@H](C(=O)NCC(=O)N[C@@H](CO)C(=O)N[C@@H](CC(N)=O)C(=O)N[C@H](C(=O)N[C@@H](Cc1ccc(O)cc1)C(N)=O)[C@@H](C)O)C(C)C)[C@@H](C)O
B4: N-alpha-[(S)-4-Carboxy-4-(19-carboxynonadecanoylamino)butyryl]-His-His-[His1,Glu14,Arg17]-pramlintide (peptide)
peptide: {C20 diacid-γGlu}-HHHCNTATCATQRLAEFLRHSSNNFGPILPPTNVGSNTY-NH2
modifications: disulfide 4-9
SMILES: CC[C@H](C)[C@H](NC(=O)[C@@H]1CCCN1C(=O)CNC(=O)[C@H](Cc1ccccc1)NC(=O)[C@H](CC(N)=O)NC(=O)[C@H](CC(N)=O)NC(=O)[C@H](CO)NC(=O)[C@H](CO)NC(=O)[C@H](Cc1c[nH]cn1)NC(=O)[C@H](CCCNC(=N)N)NC(=O)[C@H](CC(C)C)NC(=O)[C@H](Cc1ccccc1)NC(=O)[C@H](CCC(=O)O)NC(=O)[C@H](C)NC(=O)[C@H](CC(C)C)NC(=O)[C@H](CCCNC(=N)N)NC(=O)[C@H](CCC(N)=O)NC(=O)[C@@H](NC(=O)[C@H](C)NC(=O)[C@@H]1CSSC[C@H](NC(=O)[C@H](Cc2c[nH]cn2)NC(=O)[C@H](Cc2c[nH]cn2)NC(=O)[C@H](Cc2c[nH]cn2)NC(=O)CC[C@H](NC(=O)CCCCCCCCCCCCCCCCCCC(=O)O)C(=O)O)C(=O)N[C@@H](CC(N)=O)C(=O)N[C@@H]([C@@H](C)O)C(=O)N[C@@H](C)C(=O)N[C@@H]([C@@H](C)O)C(=O)N1)[C@@H](C)O)C(=O)N[C@@H](CC(C)C)C(=O)N1CCC[C@H]1C(=O)N1CCC[C@H]1C(=O)N[C@H](C(=O)N[C@@H](CC(N)=O)C(=O)N[C@H](C(=O)NCC(=O)N[C@@H](CO)C(=O)N[C@@H](CC(N)=O)C(=O)N[C@H](C(=O)N[C@@H](Cc1ccc(O)cc1)C(N)=O)[C@@H](C)O)C(C)C)[C@@H](C)O
B5: N-alpha-[(S)-4-Carboxy-4-(19-carboxynonadecanoylamino)butyryl]-His-[His1,Glu14,His17]-pramlintide (peptide)
peptide: {C20 diacid-γGlu}-HHCNTATCATQRLAEFLHHSSNNFGPILPPTNVGSNTY-NH2
modifications: disulfide 3-8
SMILES: CC[C@H](C)[C@H](NC(=O)[C@@H]1CCCN1C(=O)CNC(=O)[C@H](Cc1ccccc1)NC(=O)[C@H](CC(N)=O)NC(=O)[C@H](CC(N)=O)NC(=O)[C@H](CO)NC(=O)[C@H](CO)NC(=O)[C@H](Cc1c[nH]cn1)NC(=O)[C@H](Cc1c[nH]cn1)NC(=O)[C@H](CC(C)C)NC(=O)[C@H](Cc1ccccc1)NC(=O)[C@H](CCC(=O)O)NC(=O)[C@H](C)NC(=O)[C@H](CC(C)C)NC(=O)[C@H](CCCNC(=N)N)NC(=O)[C@H](CCC(N)=O)NC(=O)[C@@H](NC(=O)[C@H](C)NC(=O)[C@@H]1CSSC[C@H](NC(=O)[C@H](Cc2c[nH]cn2)NC(=O)[C@H](Cc2c[nH]cn2)NC(=O)CC[C@H](NC(=O)CCCCCCCCCCCCCCCCCCC(=O)O)C(=O)O)C(=O)N[C@@H](CC(N)=O)C(=O)N[C@@H]([C@@H](C)O)C(=O)N[C@@H](C)C(=O)N[C@@H]([C@@H](C)O)C(=O)N1)[C@@H](C)O)C(=O)N[C@@H](CC(C)C)C(=O)N1CCC[C@H]1C(=O)N1CCC[C@H]1C(=O)N[C@H](C(=O)N[C@@H](CC(N)=O)C(=O)N[C@H](C(=O)NCC(=O)N[C@@H](CO)C(=O)N[C@@H](CC(N)=O)C(=O)N[C@H](C(=O)N[C@@H](Cc1ccc(O)cc1)C(N)=O)[C@@H](C)O)C(C)C)[C@@H](C)O
B6: N-alpha-[(S)-4-Carboxy-4-(19-carboxynonadecanoylamino)butyryl]-[His1,Glu14,His17]-pramlintide (peptide)
peptide: {C20 diacid-γGlu}-HCNTATCATQRLAEFLHHSSNNFGPILPPTNVGSNTY-NH2
modifications: disulfide 2-7; not fully specified; printed as N-alpha-[(S)-4-Carboxy-4-(19-carboxynonadecanoylamino)butyryl]-[His1,Glu14,His17]-pramlintide

Assays:
Assay in all cases: cell-based or functional assay
[1] = target: T1, human amylin 3(a) receptor (human …)
[2] = target: T2, human calcitonin (a) receptor
[3] = target: T3, rat calcitonin (a) receptor
[4] = target: T4, rat amylin 3(a) receptor (rat …)

| Binder | Amylin receptor human EC50 [1] | CTa receptor human EC50 [2] | CTa receptor rat EC50 [3] | Amylin receptor rat EC50 [4] |
| --- | --- | --- | --- | --- |
| B1 | 0.212 nM | 0.208 nM | 1.73 nM | 0.331 nM |
| B2 | 0.0823 nM | 0.0864 nM | 0.806 nM | 0.374 nM |
| B3 | 0.0853 nM | 0.208 nM | 0.962 nM | 0.0885 nM |
| B4 | 0.0775 nM | 0.409 nM | 6.76 nM | 0.082 nM |
| B5 | 0.111 nM | 0.166 nM | 0.221 nM | 0.147 nM |
| B6 | 0.131 nM | 0.126 nM | 1.17 nM | 0.187 nM |
